Source: publication PMC8878332

Molecular target: Human plasminogen (human)
Assay: ELISA; plasminogen immobilised on plate wells (1 ug in 100 uL PBS), blocked with 1% gelatin; AdcA 0-1 uM in PBS, 1.5 h at 37 C; bound AdcA detected with rabbit anti-AdcA serum; apparent KD from the fit to total binding saturation (GraphPad Prism); MntC run as control; EACA (0.1-10 mM) or NaCl (25-800 mM) added in further panels

## Staphylococcus aureus zinc transport protein AdcA, recombinant full-length protein (natural protein)
  Kd: 45.1 nM
